Results: publication PMC6956856

Target: Drosophila melanogaster SERINC (Drosophila melanogaster)
Assay: cryo-EM structure

stoichiometry N: 6
Substance: Drosophila melanogaster SERINC (natural protein)
